In general, EC50 refers to the concentration that produces a half-maximal response. A lower EC50 goes with a more potent agent.

This is an account of results in US20170157198A1 (BAXALTA, published 2017).

[ ]: non-standard residue; d: D form. Aib = CC(C)(N)C(=O)O

The target of experiment [1] is T1, TFPI (human TFPI-1α), as coated or added in the ELISA and model assays (human, UniProt P10646 29-304, limits assumed). The experiment in a line: ELISA affinity (column head says EC50). (In general: In an ELISA, binding on a coated surface is turned into a signal by an enzyme label.)
The target of experiment [2] is T1, TFPI (human TFPI-1α), as coated or …. The experiment in a line: cell-based or functional assay.
The target of a further experiment is T2, murine TFPI (murine, UniProt O54819 29-289, limits assumed).
T2 construct: also called murine TFPI-1
T2 sequence (looked up): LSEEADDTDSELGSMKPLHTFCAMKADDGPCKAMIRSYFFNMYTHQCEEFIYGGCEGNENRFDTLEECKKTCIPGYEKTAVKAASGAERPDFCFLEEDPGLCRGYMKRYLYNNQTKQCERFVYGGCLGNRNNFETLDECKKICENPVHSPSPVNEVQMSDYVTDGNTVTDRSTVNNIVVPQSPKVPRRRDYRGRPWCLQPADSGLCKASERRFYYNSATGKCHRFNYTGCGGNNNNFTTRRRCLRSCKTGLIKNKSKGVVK
The experiment in a line: not specified.

With Ac-FQSK[dP]NVHVDGYFC(linear PEG 40 kDa)RL[Aib]AKL-NH2 [JBT2404], the concentration for a half-maximal effect (EC50) in experiment [1] came out at 18.2 nM. Besides, the “FXa Inhibition EC50” value in experiment [2] came out at 13.4 nM.

B1: JBT2329 (peptide)
peptide: FQSKPNVHVDGYFERLXAKLC
modifications: N-terminal acetyl (Ac); D-proline at 5; Aib at 17; C-terminal C(PEG), linear PEG 41.5 kD; C-terminal amide (NH2)
Turning to B1, the binding result with murine TFPI is recorded as “binds”.

B2: JBT2430 (peptide)
peptide: FQSKPNVHVDGYFERLXAKLK
modifications: not fully specified; K(AOA) coupled to PSA (polysialic acid) aldehyde; D-proline at 5; Aib at 17
For the molecule B2, the “FXa Inhibition EC50” value in experiment [2] stood at 9 nM.
